Substitutions are numbered along the chain they refer to.
Key:
[1] = target: T1, Streptococcus pyogenes type II-A Cas1 R5A (Streptococcus pyogenes, UniProt Q99ZW1 1-289, R5A); assay: SEC; analytical SEC on Superdex 200 Increase 10/300 GL in SEC buffer (20 mM HEPES pH 7.5, 500 mM NaCl, 5% v/v glycerol, 5 mM DTT) at 4 °C; Cas1 variant 15.0 uM (2 equiv.) mixed with Cas2 7.5 uM, incubated 1 h at 4 °C before injection; fractions on SDS-PAGE, Coomassie; settings: both partners purified
T1 construct: Cas1 of the Streptococcus pyogenes (SF370) type II-A CRISPR-Cas system with R5A; source: E. coli Rosetta 2(DE3) BL21, purified (Ni-NTA, SUMO protease, HiTrap Heparin, Superdex 200)
T1 sequence (looked up): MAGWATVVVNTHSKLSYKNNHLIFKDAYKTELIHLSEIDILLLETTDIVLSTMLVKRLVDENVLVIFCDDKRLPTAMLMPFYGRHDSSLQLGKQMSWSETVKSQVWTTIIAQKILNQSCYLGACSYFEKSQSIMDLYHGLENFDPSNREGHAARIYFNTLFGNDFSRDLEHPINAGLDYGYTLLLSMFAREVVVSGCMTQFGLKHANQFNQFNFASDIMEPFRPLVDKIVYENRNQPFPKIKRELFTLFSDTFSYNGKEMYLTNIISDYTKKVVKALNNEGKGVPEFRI

[2] = target: T2, Streptococcus pyogenes type II-A Cas1 (wild type) (Streptococcus pyogenes, UniProt Q99ZW1 1-289); assay: as above; settings: both partners purified
T2 construct: Cas1 of the Streptococcus pyogenes (SF370) type II-A CRISPR-Cas system; I surmise that one is the wild type; also called wt; source: E. coli Rosetta 2(DE3) BL21, purified (Ni-NTA, SUMO protease, HiTrap Heparin, Superdex 200)
T2 sequence (looked up): T1 sequence (looked up) with A5R

- binding result [1]: binds
- binding result [2]: binds
B1: Streptococcus pyogenes type II-A Cas2 (natural protein, UniProt Q99ZW0 1-113, looked up)
chain: MSYRYMRMILMFDMPTDTAEERKAYRKFRKFLLSEGFIMHQFSIYSKLLLNNTANNAMIGRLREHNPNKGNITLLTVTEKQFARMIYLHGERNNCIANSDERLVFLGEAFDES
notes: Cas2 of the Streptococcus pyogenes (SF370) type II-A CRISPR-Cas system; source: E. coli Rosetta 2(DE3) BL21, purified (Ni-NTA, SUMO protease, HiTrap Heparin, Superdex 200)
